In the Immune Epitope Database (IEDB):

Key:
HLA-A*01:01 [1] = experiment: IEDB peptide-MHC binding, purified MHC/direct/fluorescence; filed as Kd, often an IC50 or EC50 that approximates it; ≥ and ≤ were set here for values at or beyond the usual limits of such assays
HLA-A*02:01 [2] = experiment: as above
HLA-A*03:01 [3] = experiment: as above
HLA-A*11:01 [4] = experiment: as above; conditions: source organism: Pseudomonas putida
HLA-A*26:01 = experiment: as above
HLA-A*30:01 = experiment: as above; conditions: source organism: Pseudomonas putida
HLA-A*69:01 = experiment: as above
HLA-B*07:02 [5] = experiment: as above; conditions: source organism: Pseudomonas putida
HLA-B*08:01 [6] = experiment: as above; conditions: source organism: Pseudomonas putida
HLA-B*15:01 = experiment: as above
HLA-B*27:05 = experiment: as above; conditions: source organism: Pseudomonas putida
HLA-B*40:01 = experiment: as above; conditions: source organism: Pseudomonas putida
HLA-B*58:01 = experiment: as above; conditions: source organism: Pseudomonas putida
HLA-B*73:01 = experiment: IEDB peptide-MHC binding, purified MHC/competitive/fluorescence; filed as Kd, often an IC50 or EC50 that approximates it; ≥ and ≤ were set here for values at or beyond the usual limits of such assays
HLA-A*26:02 = experiment: IEDB peptide-MHC binding, purified MHC/direct/fluorescence; filed as Kd, often an IC50 or EC50 that approximates it; ≥ and ≤ were set here for values at or beyond the usual limits of such assays
HLA-A*80:01 = experiment: as above; conditions: source organism: West Nile virus
HLA-C*07:02 = experiment: as above
HLA-C*12:03 = experiment: as above; conditions: source organism: Vaccinia virus
HLA-A*02:01 [7] = experiment: IEDB peptide-MHC binding, purified MHC/competitive/fluorescence; filed as Kd, often an IC50 or EC50 that approximates it; ≥ and ≤ were set here for values at or beyond the usual limits of such assays; conditions: source organism: Vaccinia virus
HLA-B*08:01 [8] = experiment: IEDB peptide-MHC binding, purified MHC/competitive/radioactivity; filed as Kd, often an IC50 or EC50 that approximates it; ≥ and ≤ were set here for values at or beyond the usual limits of such assays; conditions: source organism: Vaccinia virus WR
HLA-C*14:02 = experiment: IEDB peptide-MHC binding, purified MHC/direct/fluorescence; filed as Kd, often an IC50 or EC50 that approximates it; ≥ and ≤ were set here for values at or beyond the usual limits of such assays
HLA-A*02:03 = experiment: as above
HLA-A*02:11 = experiment: as above
HLA-A*02:12 = experiment: as above
HLA-A*02:16 = experiment: as above; conditions: source organism: Vibrio vulnificus YJ016
HLA-A*02:19 = experiment: as above
HLA-A*29:02 [9] = experiment: as above; conditions: source organism: Vibrio vulnificus YJ016
HLA-B*18:01 = experiment: as above
HLA-B*27:03 = experiment: as above
HLA-B*46:01 [10] = experiment: as above
HLA-B*51:01 = experiment: as above
HLA-B*57:01 = experiment: as above
HLA-A*03:01 [11] = experiment: IEDB peptide-MHC binding, purified MHC/competitive/fluorescence; filed as Kd, often an IC50 or EC50 that approximates it; ≥ and ≤ were set here for values at or beyond the usual limits of such assays; conditions: source organism: Robiginitalea biformata HTCC2501
HLA-A*11:01 [12] = experiment: as above; conditions: source organism: Robiginitalea biformata HTCC2501
HLA-A*31:01 = experiment: as above; conditions: source organism: Robiginitalea biformata HTCC2501
HLA-C*15:02 = experiment: IEDB peptide-MHC binding, purified MHC/direct/fluorescence; filed as Kd, often an IC50 or EC50 that approximates it; ≥ and ≤ were set here for values at or beyond the usual limits of such assays; conditions: source organism: Homo sapiens
HLA-A*01:01 [13] = experiment: IEDB peptide-MHC binding, purified MHC/competitive/fluorescence; filed as Kd, often an IC50 or EC50 that approximates it; ≥ and ≤ were set here for values at or beyond the usual limits of such assays; conditions: source organism: Homo sapiens
HLA-A*29:02 [14] = experiment: as above; conditions: source organism: Homo sapiens
HLA-A*24:03 = experiment: IEDB peptide-MHC binding, purified MHC/direct/fluorescence; filed as Kd, often an IC50 or EC50 that approximates it; ≥ and ≤ were set here for values at or beyond the usual limits of such assays; conditions: source organism: Yersinia pestis CA88-4125
HLA-B*39:01 = experiment: as above; conditions: source organism: Yersinia pestis CA88-4125
HLA-C*03:03 = experiment: as above; conditions: source organism: Mycobacterium tuberculosis C
HLA-B*46:01 [15] = experiment: IEDB peptide-MHC binding, purified MHC/competitive/fluorescence; filed as Kd, often an IC50 or EC50 that approximates it; ≥ and ≤ were set here for values at or beyond the usual limits of such assays; conditions: source organism: Mycobacterium tuberculosis C
HLA-B*07:02 [16] = experiment: as above; conditions: source organism: Influenza A virus (A/Memphis/1/1978(H1N1))
[17] = source organism: Pseudomonas putida
[18] = source organism: West Nile virus
[19] = source organism: Vibrio vulnificus YJ016
[20] = source organism: Yersinia pestis CA88-4125

RVWRGEQGK showed a Kd (HLA-A*01:01 [1]; [17]) of at least 20 µM, a Kd (HLA-A*02:01 [2]; [17]) of at least 20 µM and a Kd (HLA-A*03:01 [3]; [17]) of 0.246 µM. It also gave a Kd (HLA-A*11:01 [4]) of 0.0548 µM, a Kd (HLA-A*26:01; [17]) of at least 20 µM and a Kd (HLA-A*30:01) of 0.045 µM. For the same sequence, the Kd (HLA-A*69:01; [17]) was at least 20 µM, the Kd (HLA-B*07:02 [5]) was at least 20 µM and the Kd (HLA-B*08:01 [6]) was at least 20 µM. It also gave a Kd (HLA-B*15:01; [17]) of at least 20 µM, a Kd (HLA-B*27:05) of 7.53 µM and a Kd (HLA-B*40:01) of at least 20 µM. For the same sequence, the Kd (HLA-B*58:01) was at least 20 µM and the Kd (HLA-B*73:01; [17]) was at least 20 µM.
With LTKEEFTRY the Kd (HLA-A*01:01 [1]; [18]) was 1.15 µM, the Kd (HLA-A*26:01; [18]) was 1.08 µM and the Kd (HLA-A*26:02; [18]) was 0.28 µM. The Kd (HLA-A*80:01) was 0.544 µM.
Sequence LLYAHINAL has a Kd (HLA-C*07:02; source organism: Vaccinia virus) of 0.216 µM, a Kd (HLA-C*12:03) of 0.222 µM and a Kd (HLA-A*02:01 [7]) of 0.0016 µM. It also gave a Kd (HLA-B*08:01 [8]) of 0.00137 µM.
In the case of ATPENAAAL, the Kd (HLA-C*14:02; source organism: Mycobacterium tuberculosis variant bovis BCG str. Pasteur 1173P2) is reported as 0.177 µM.
In the case of MKYVWPPIM, the Kd (HLA-A*02:01 [2]; [19]) is reported as at least 20 µM, the Kd (HLA-A*02:03; [19]) is reported as at least 20 µM and the Kd (HLA-A*02:11; [19]) is reported as at least 20 µM. The Kd (HLA-A*02:12; [19]) was at least 20 µM, the Kd (HLA-A*02:16) was at least 20 µM and the Kd (HLA-A*02:19; [19]) was at least 20 µM. It also gave a Kd (HLA-A*03:01 [3]; [19]) of at least 20 µM, a Kd (HLA-A*26:01; [19]) of at least 20 µM and a Kd (HLA-A*29:02 [9]) of at least 20 µM. The Kd (HLA-A*69:01; [19]) was at least 20 µM, the Kd (HLA-B*15:01; [19]) was at least 20 µM and the Kd (HLA-B*18:01; [19]) was at least 20 µM. The Kd (HLA-B*27:03; [19]) was at least 20 µM, the Kd (HLA-B*46:01 [10]; [19]) was at least 20 µM and the Kd (HLA-B*51:01; [19]) was at least 20 µM. For the same sequence, the Kd (HLA-B*57:01; [19]) was at least 20 µM.
PLAKGLFHK showed a Kd (HLA-A*03:01 [11]) of 6.78 µM, a Kd (HLA-A*11:01 [12]) of 2.38 µM and a Kd (HLA-A*31:01) of at least 20 µM.
HMMAVTLFY gave a Kd (HLA-C*14:02; source organism: Homo sapiens) of 0.516 µM, a Kd (HLA-C*15:02) of 4.72 µM and a Kd (HLA-A*01:01 [13]) of 0.0574 µM. The Kd (HLA-A*29:02 [14]) was 0.0002 µM.
In the case of LPEAYQWHI, the Kd (HLA-A*02:03; [20]) is reported as at least 20 µM, the Kd (HLA-A*02:11; [20]) is reported as at least 20 µM and the Kd (HLA-A*02:12; [20]) is reported as at least 20 µM. The Kd (HLA-A*02:19; [20]) was at least 20 µM, the Kd (HLA-A*03:01 [3]; [20]) was at least 20 µM and the Kd (HLA-A*24:03) was at least 20 µM. It also gave a Kd (HLA-A*26:01; [20]) of at least 20 µM, a Kd (HLA-B*15:01; [20]) of at least 20 µM and a Kd (HLA-B*18:01; [20]) of at least 20 µM. It also gave a Kd (HLA-B*27:03; [20]) of at least 20 µM, a Kd (HLA-B*39:01) of at least 20 µM and a Kd (HLA-B*46:01 [10]; [20]) of at least 20 µM. The Kd (HLA-B*51:01; [20]) was 0.484 µM and the Kd (HLA-B*57:01; [20]) was at least 20 µM.
Work on YVFYDGPPF yielded a Kd (HLA-A*26:02; source organism: Mycobacterium tuberculosis str. Haarlem) of 0.011 µM, a Kd (HLA-C*03:03) of 0.01 µM and a Kd (HLA-C*07:02; source organism: Mycobacterium tuberculosis C) of 0.021 µM. It also gave a Kd (HLA-B*46:01 [15]) of 0.125 µM.
For VVAANRSAF, the Kd (HLA-C*14:02; source organism: Mycobacterium tuberculosis CDC1551) was 0.103 µM.
For YRAKVKPWA, the Kd (HLA-B*73:01; source organism: Francisella tularensis subsp. tularensis FSC198) was 4.5 µM.
DPLVVAASI showed a Kd (HLA-B*07:02 [16]) of at least 20 µM.
